From publication doi:10.1101/758797 (bioRxiv, 2019) come the findings set out here.

This test has as its target VPS15 (human, UniProt Q99570 1-1358). The test can be described thus: cryo-EM structure.

VPS15, sequence (Q99570 whole entry): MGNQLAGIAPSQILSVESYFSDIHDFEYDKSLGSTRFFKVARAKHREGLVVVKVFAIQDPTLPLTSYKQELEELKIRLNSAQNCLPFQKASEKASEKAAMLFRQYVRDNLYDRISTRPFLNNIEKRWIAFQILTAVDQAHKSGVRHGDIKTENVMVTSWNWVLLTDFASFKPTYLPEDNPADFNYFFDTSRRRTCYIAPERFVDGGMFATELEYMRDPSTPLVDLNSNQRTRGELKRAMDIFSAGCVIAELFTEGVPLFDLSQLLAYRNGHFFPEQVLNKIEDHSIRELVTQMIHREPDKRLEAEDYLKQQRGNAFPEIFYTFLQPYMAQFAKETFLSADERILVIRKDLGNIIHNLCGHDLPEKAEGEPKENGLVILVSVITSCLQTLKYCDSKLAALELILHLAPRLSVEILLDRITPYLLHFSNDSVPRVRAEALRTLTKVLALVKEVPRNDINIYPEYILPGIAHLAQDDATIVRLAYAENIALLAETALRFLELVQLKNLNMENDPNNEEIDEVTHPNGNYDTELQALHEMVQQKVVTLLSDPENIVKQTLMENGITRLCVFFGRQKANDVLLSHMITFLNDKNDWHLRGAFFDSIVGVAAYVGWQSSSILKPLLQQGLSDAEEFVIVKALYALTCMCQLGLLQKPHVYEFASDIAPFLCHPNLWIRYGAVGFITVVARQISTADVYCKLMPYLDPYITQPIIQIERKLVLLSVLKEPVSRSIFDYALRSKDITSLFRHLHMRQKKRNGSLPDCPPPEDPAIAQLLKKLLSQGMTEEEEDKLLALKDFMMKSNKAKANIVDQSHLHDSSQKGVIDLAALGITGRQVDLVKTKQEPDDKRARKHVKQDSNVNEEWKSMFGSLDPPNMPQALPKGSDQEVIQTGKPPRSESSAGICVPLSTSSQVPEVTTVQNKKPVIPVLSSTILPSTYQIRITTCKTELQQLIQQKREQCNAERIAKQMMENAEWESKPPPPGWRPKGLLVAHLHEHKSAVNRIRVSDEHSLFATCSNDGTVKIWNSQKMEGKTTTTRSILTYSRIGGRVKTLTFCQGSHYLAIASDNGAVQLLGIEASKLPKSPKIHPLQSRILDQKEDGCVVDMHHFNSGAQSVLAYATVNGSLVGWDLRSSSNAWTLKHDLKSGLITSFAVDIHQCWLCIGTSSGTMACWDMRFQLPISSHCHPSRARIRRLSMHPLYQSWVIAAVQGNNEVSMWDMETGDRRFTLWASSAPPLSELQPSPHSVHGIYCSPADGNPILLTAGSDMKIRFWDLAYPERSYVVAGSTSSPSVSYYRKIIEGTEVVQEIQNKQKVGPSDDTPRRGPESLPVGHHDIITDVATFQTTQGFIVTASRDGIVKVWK

B1: NRBF2^MIT as fused in MIT-Fusion (NRBF2 residues 1-159, S113A, S120A) (domain or fragment)
chain: MEVMEGPLNLAHQQSRRADRLLAAGKYEEAISCHKKAAAYLSEAMKLTQSEQAHLSLELQRDSHMKQLLLIQERWKRAQREERLKAQQNTDKDAAAHLQTSHKPSAEDAEGQAPLSQKYAPSTEKCLPEIQGIFDRDPDTLLYLLQQKSEPAEPCIGSK
Regarding B1, the binding result is recorded as “binds”.
